system: Escherichia coli TOP10; assay: shrunken log2 fold change of peptide-encoding DNA abundance (4.5 h post-induction vs induction); higher = less antimicrobial activity (less host growth inhibition); settings: time post-induction: 4.5 h; library: site-saturation at positions 5, 18, 19, 20
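Further: peptides expressed intracellularly from a pBAD plasmid library in pooled LB shake-flask culture, induced with 0.3% L-arabinose, DNA abundance read by NGS, three biological replicates, DESeq2 with apeglm shrinkage.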

| Sequence | shrunken log2 fold change |
| --- | --- |
| RRIRPRPPRLPRPRPRPMKLPRP | -0.0874 |
| RRIRQRPPRLPRPRPRPATMPRP | -0.0699 |
| RRIRTRPPRLPRPRPRPPVFPRP | 0.346 |
| RRIRVRPPRLPRPRPRPCHAPRP | -0.311 |
| RRIRKRPPRLPRPRPRPYKTPRP | -0.227 |
| RRIRGRPPRLPRPRPRPQNLPRP | -0.34 |
| RRIRDRPPRLPRPRPRPHVQPRP | -0.0912 |
| RRIRGRPPRLPRPRPRPLGPPRP | 0.456 |
| RRIRSRPPRLPRPRPRPFNGPRP | -0.0626 |
| RRIRNRPPRLPRPRPRPRPVPRP | 0.303 |
| RRIRYRPPRLPRPRPRPLTFPRP | -0.696 |
| RRIRFRPPRLPRPRPRPIFNPRP | -0.0984 |
| RRIRGRPPRLPRPRPRPAWAPRP | 0.854 |
| RRIRMRPPRLPRPRPRPFIPPRP | -0.26 |
| RRIRKRPPRLPRPRPRPQYVPRP | -0.143 |
| RRIRTRPPRLPRPRPRPWWNPRP | -0.233 |
| RRIRPRPPRLPRPRPRPNVAPRP | -0.215 |
| RRIRRRPPRLPRPRPRPNYTPRP | -0.44 |
| RRIRTRPPRLPRPRPRPENPPRP | 0.261 |
| RRIRIRPPRLPRPRPRPGRKPRP | 0.0417 |
| RRIRPRPPRLPRPRPRPAVIPRP | -0.007 |
| RRIRHRPPRLPRPRPRPTHEPRP | 0.0424 |
| RRIRWRPPRLPRPRPRPGPDPRP | 0.533 |
| RRIRSRPPRLPRPRPRPFAPPRP | 0.314 |
| RRIRRRPPRLPRPRPRPRPGPRP | 0.557 |

| Sequence | shrunken log2 fold change |
| --- | --- |
| RRIRWRPPRLPRPRPRPAFEPRP | 0.183 |
| RRIRVRPPRLPRPRPRPHHYPRP | 0.13 |
| RRIRTRPPRLPRPRPRPVILPRP | -0.994 |
| RRIRIRPPRLPRPRPRPGMAPRP | 0.006 |
| RRIRYRPPRLPRPRPRPALPPRP | -0.0414 |
| RRIRKRPPRLPRPRPRPPTWPRP | 0.702 |
| RRIRCRPPRLPRPRPRPTTYPRP | -0.781 |
| RRIRCRPPRLPRPRPRPTCAPRP | 0.178 |
| RRIRPRPPRLPRPRPRPYWEPRP | -0.0429 |
| RRIRPRPPRLPRPRPRPRKRPRP | 0.198 |
| RRIRPRPPRLPRPRPRPCYIPRP | -0.795 |
| RRIRWRPPRLPRPRPRPADRPRP | 0.0754 |
| RRIRSRPPRLPRPRPRPWFAPRP | -0.00302 |
| RRIRWRPPRLPRPRPRPVEDPRP | 0.00386 |
| RRIRQRPPRLPRPRPRPWYQPRP | -0.000894 |
| RRIRRRPPRLPRPRPRPMMRPRP | 0.73 |
| RRIRIRPPRLPRPRPRPSMLPRP | -0.422 |
| RRIRIRPPRLPRPRPRPDYAPRP | -0.154 |
| RRIRERPPRLPRPRPRPTSDPRP | -0.0201 |
| RRIRLRPPRLPRPRPRPRKAPRP | 0.022 |
| RRIRERPPRLPRPRPRPLQTPRP | 0.22 |
| RRIRGRPPRLPRPRPRPACHPRP | 0.889 |
| RRIRYRPPRLPRPRPRPAPKPRP | 0.207 |
| RRIRIRPPRLPRPRPRPRQAPRP | 0.0194 |
| RRIRHRPPRLPRPRPRPCMAPRP | -0.213 |

| Sequence | shrunken log2 fold change |
| --- | --- |
| RRIRSRPPRLPRPRPRPNRRPRP | -0.0429 |
| RRIRQRPPRLPRPRPRPAVDPRP | 0.963 |
| RRIRNRPPRLPRPRPRPCSTPRP | -0.194 |
| RRIRRRPPRLPRPRPRPKKKPRP | -0.00706 |
| RRIRIRPPRLPRPRPRPQPDPRP | -0.483 |
| RRIRVRPPRLPRPRPRPTNEPRP | -0.0806 |
| RRIRLRPPRLPRPRPRPVGIPRP | 0.102 |
| RRIRARPPRLPRPRPRPRKNPRP | 0.472 |
| RRIRNRPPRLPRPRPRPNLYPRP | -0.515 |
| RRIRLRPPRLPRPRPRPWCQPRP | -0.0199 |
| RRIRFRPPRLPRPRPRPFHVPRP | -0.546 |
| RRIRYRPPRLPRPRPRPVRDPRP | -0.123 |
| RRIRPRPPRLPRPRPRPGWQPRP | 0.0481 |
| RRIRCRPPRLPRPRPRPHEMPRP | -0.0763 |
| RRIRPRPPRLPRPRPRPFAEPRP | 0.0204 |
| RRIRRRPPRLPRPRPRPYLKPRP | -0.936 |
| RRIRRRPPRLPRPRPRPYEAPRP | 0.125 |
| RRIRCRPPRLPRPRPRPHHDPRP | -0.58 |
| RRIRARPPRLPRPRPRPRREPRP | 0.631 |
| RRIRCRPPRLPRPRPRPRYDPRP | -0.596 |
| RRIRFRPPRLPRPRPRPHCAPRP | -0.17 |
| RRIRPRPPRLPRPRPRPIYHPRP | -0.466 |
| RRIRERPPRLPRPRPRPHLWPRP | 2.71 |
| RRIRMRPPRLPRPRPRPCLVPRP | 0.0451 |
| RRIRCRPPRLPRPRPRPCINPRP | -0.0741 |

| Sequence | shrunken log2 fold change |
| --- | --- |
| RRIRMRPPRLPRPRPRPLLSPRP | 0.17 |
| RRIRGRPPRLPRPRPRPQQMPRP | 0.287 |
| RRIRMRPPRLPRPRPRPVQSPRP | 0.206 |
| RRIRYRPPRLPRPRPRPQQEPRP | -0.0075 |
| RRIRFRPPRLPRPRPRPPFDPRP | 0.188 |
| RRIRRRPPRLPRPRPRPLTMPRP | 0.0632 |
| RRIRNRPPRLPRPRPRPAMFPRP | -0.204 |
| RRIRTRPPRLPRPRPRPMELPRP | -0.172 |
| RRIRERPPRLPRPRPRPCKPPRP | 0.0172 |
| RRIRTRPPRLPRPRPRPFIPPRP | -0.312 |
| RRIRERPPRLPRPRPRPMYSPRP | -0.552 |
| RRIRRRPPRLPRPRPRPYCSPRP | -0.262 |
| RRIRDRPPRLPRPRPRPVCKPRP | -0.0246 |
| RRIRLRPPRLPRPRPRPVHEPRP | 0.0233 |
| RRIRIRPPRLPRPRPRPVMIPRP | -0.00671 |
| RRIRRRPPRLPRPRPRPMHCPRP | 0.505 |
| RRIRERPPRLPRPRPRPHDHPRP | -0.224 |
| RRIRQRPPRLPRPRPRPIFWPRP | 0.142 |
| RRIRSRPPRLPRPRPRPARVPRP | 0.47 |
| RRIRQRPPRLPRPRPRPPSCPRP | 0.348 |
| RRIRERPPRLPRPRPRPPTWPRP | 0.113 |
| RRIRHRPPRLPRPRPRPCATPRP | 0.0959 |
| RRIRWRPPRLPRPRPRPIFHPRP | -0.101 |
| RRIRERPPRLPRPRPRPRFPPRP | 0.0958 |
| RRIRYRPPRLPRPRPRPYRKPRP | -0.178 |

| Sequence | shrunken log2 fold change |
| --- | --- |
| RRIRQRPPRLPRPRPRPHNVPRP | -0.0684 |
| RRIRHRPPRLPRPRPRPAWTPRP | -0.136 |
| RRIRMRPPRLPRPRPRPKTIPRP | 0.0873 |
| RRIRRRPPRLPRPRPRPRKEPRP | 0.4 |
| RRIRMRPPRLPRPRPRPVACPRP | 0.122 |
| RRIRWRPPRLPRPRPRPVVIPRP | -0.101 |
| RRIRYRPPRLPRPRPRPCSYPRP | -0.0018 |
| RRIRQRPPRLPRPRPRPRADPRP | 0.156 |
| RRIRMRPPRLPRPRPRPTAEPRP | 2.75 |
| RRIRFRPPRLPRPRPRPALVPRP | 0.273 |
| RRIRCRPPRLPRPRPRPYVTPRP | -0.893 |
| RRIRLRPPRLPRPRPRPLWVPRP | 0.0349 |
| RRIRFRPPRLPRPRPRPPNAPRP | 0.353 |
| RRIRERPPRLPRPRPRPEKWPRP | -0.0225 |
| RRIRWRPPRLPRPRPRPIKEPRP | 0.0169 |
| RRIRPRPPRLPRPRPRPEQQPRP | -0.0146 |
| RRIRDRPPRLPRPRPRPWGVPRP | 0.0789 |
| RRIRMRPPRLPRPRPRPGVGPRP | 0.841 |
| RRIRKRPPRLPRPRPRPLKDPRP | -0.22 |
| RRIRQRPPRLPRPRPRPQYDPRP | -0.081 |
| RRIRMRPPRLPRPRPRPCYCPRP | -0.289 |
| RRIRHRPPRLPRPRPRPYLEPRP | -0.0394 |
| RRIRMRPPRLPRPRPRPFPYPRP | -0.23 |
| RRIRQRPPRLPRPRPRPDKSPRP | -0.0319 |
| RRIRVRPPRLPRPRPRPSFIPRP | -0.749 |

| Sequence | shrunken log2 fold change |
| --- | --- |
| RRIRWRPPRLPRPRPRPRTFPRP | 0.3 |
| RRIRYRPPRLPRPRPRPTDKPRP | -0.347 |
| RRIRNRPPRLPRPRPRPMYMPRP | -0.05 |
| RRIRYRPPRLPRPRPRPMTLPRP | -0.0394 |
| RRIRLRPPRLPRPRPRPSYSPRP | -0.589 |
| RRIRCRPPRLPRPRPRPGKAPRP | 0.00811 |
| RRIRDRPPRLPRPRPRPDTWPRP | 0.335 |
| RRIRLRPPRLPRPRPRPNCEPRP | -0.0439 |
| RRIRFRPPRLPRPRPRPITYPRP | -0.472 |
| RRIRFRPPRLPRPRPRPVSKPRP | -0.358 |
| RRIRYRPPRLPRPRPRPYLRPRP | -0.00962 |
| RRIRGRPPRLPRPRPRPPSPPRP | 1.01 |
| RRIRQRPPRLPRPRPRPQPMPRP | 0.348 |
| RRIRSRPPRLPRPRPRPLGYPRP | -0.351 |
| RRIRDRPPRLPRPRPRPVTLPRP | -0.283 |
| RRIRARPPRLPRPRPRPGHPPRP | 0.543 |
| RRIRFRPPRLPRPRPRPLFNPRP | -0.605 |
| RRIRPRPPRLPRPRPRPQLGPRP | 0.159 |
| RRIRTRPPRLPRPRPRPPQPPRP | 0.154 |
| RRIRARPPRLPRPRPRPAFRPRP | 0.355 |
| RRIRKRPPRLPRPRPRPDCTPRP | 1.22 |
| RRIRSRPPRLPRPRPRPPTDPRP | 0.429 |
| RRIRTRPPRLPRPRPRPHNPPRP | -0.385 |
| RRIRKRPPRLPRPRPRPVTLPRP | 0.163 |
| RRIRLRPPRLPRPRPRPPWYPRP | -0.312 |

Reference: the supplement of paper PMC9112550, “Optimization of the antimicrobial peptide Bac7 by deep mutational scanning” (BMC Biology, 2022)
